{"source": "the supplement of paper PMC12042874", "note": "± gives the uncertainty stated by the source."}
{"assay": "amyloid nucleation score (Sup35N fusion, yeast selection) (log enrichment); library NNK1; higher = more nucleation; inactive = no reads after selection", "summary_of_the_method": "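Output and input plasmid inserts were sequenced by Illumina after psi-negative yeast carrying Sup35N fused to peptides of 20 random codons had been induced 24 hours with 100 μM copper sulfate and grown 7 days at 30°C on medium lacking adenine and uracil. The nucleation score is the DiMSum log enrichment of output over input reads, centred on the mode score of non-aggregating sequences. Sequences with under 100 input reads were excluded.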"}
{"substance": "HNIAIAPARWCVSSIRSG", "amyloid nucleation score": "-0.53 ± 0.45"}
{"substance": "HNTSLYVTLNSSTR", "amyloid nucleation score": "6.2 ± 0.09"}
{"substance": "HNVFDNLHMDSDKRMANSV", "amyloid nucleation score": "0.428 ± 0.4"}
{"substance": "HNVQGRWFFRAHWMSYKHTI", "amyloid nucleation score": "0.249 ± 0.62"}
{"substance": "HNWSCQVHRDINLDRGAKES", "amyloid nucleation score": "1.79 ± 0.4"}
{"substance": "HPIEWSKVSDNIRRQSGCCG", "amyloid nucleation score": "0.754 ± 0.33"}
{"substance": "HPLAAVSKLCRRSRLGLSSR", "amyloid nucleation score": "-0.124 ± 0.35"}
{"substance": "HPMKCFQANQFINIYRNDVA", "amyloid nucleation score": "7.136 ± 0.059"}
{"substance": "HPPNFVNVSW", "amyloid nucleation score": "-0.023 ± 0.51"}
{"substance": "HQEAGLGSMVQTNAHATAKP", "amyloid nucleation score": "-0.081 ± 1"}
{"substance": "HQIPCPFRSRLARPGHLLEI", "amyloid nucleation score": "-0.612 ± 1"}
{"substance": "HRYYSYSWGLWLSTTWEYFS", "amyloid nucleation score": "inactive"}
{"substance": "HSATGQIGRALLTSSCVCL", "amyloid nucleation score": "inactive"}
{"substance": "HSCTTLPL", "amyloid nucleation score": "-0.461 ± 0.79"}
{"substance": "HSIDLGTFDGFFKIRLSSTT", "amyloid nucleation score": "0.598 ± 0.78"}
{"substance": "HSLAGLGIIGRCAKLVQAQS", "amyloid nucleation score": "0.48 ± 0.25"}
{"substance": "HSLGTCRFFVIAHSLK", "amyloid nucleation score": "0.583 ± 0.69"}
{"substance": "HSLLWPLGFAQ", "amyloid nucleation score": "0.184 ± 0.67"}
{"substance": "HSWCMSSSSIKFVCLENDLL", "amyloid nucleation score": "6.804 ± 0.061"}
{"substance": "HTQYSSRYGFMCSRWIVSGV", "amyloid nucleation score": "0.684 ± 0.7"}
{"substance": "HTSCRTVQHLKVWFPVK", "amyloid nucleation score": "1.25 ± 0.74"}
{"substance": "HVCKRRFRFRGLTILCRFTL", "amyloid nucleation score": "-0.769 ± 1.1"}
{"substance": "HVGIDIAVTWLQVKRVAMAS", "amyloid nucleation score": "0.037 ± 0.31"}
{"substance": "HVRHNVYISVCEVARDKRRG", "amyloid nucleation score": "5.12 ± 0.08"}
{"substance": "HVSSSE", "amyloid nucleation score": "-0.174 ± 1.1"}
{"substance": "HVTKMNCPLCQVKLGNYPVY", "amyloid nucleation score": "-0.546 ± 0.49"}
{"substance": "HVTNSWNSKGLRTSSGDTNV", "amyloid nucleation score": "0.305 ± 0.4"}
{"substance": "HWLRYGDRIHMDNYNTSFFV", "amyloid nucleation score": "1.42 ± 0.12"}
{"substance": "HWMFFYRDIFCVCVNSFL", "amyloid nucleation score": "4.17 ± 0.085"}
{"substance": "HWWVGKRLLLHPWVA", "amyloid nucleation score": "0.224 ± 0.31"}
{"substance": "HYACRRSVERSKRRGVRGSM", "amyloid nucleation score": "0.039 ± 0.46"}
{"substance": "HYFPVIDQAICFDSFRPMPV", "amyloid nucleation score": "inactive"}
{"substance": "HYIVDLEQLQWDVWGIFSDS", "amyloid nucleation score": "0.058 ± 0.73"}
{"substance": "HYMRWIGLRTDTKGPRSGSG", "amyloid nucleation score": "-0.578 ± 0.86"}
{"substance": "HYRSHSIGIRFAVSDWRIAF", "amyloid nucleation score": "0.844 ± 0.46"}
{"substance": "HYTLIESSNRSANNEPQVTH", "amyloid nucleation score": "0.353 ± 0.88"}
{"substance": "IAAVFHCKNSLMY", "amyloid nucleation score": "2 ± 0.2"}
{"substance": "IACPYRHNGCNTRLRNINAV", "amyloid nucleation score": "-0.316 ± 0.42"}
{"substance": "IADGTLTVSL", "amyloid nucleation score": "0.609 ± 0.32"}
{"substance": "IALNRMFSISLVFYDKGFWY", "amyloid nucleation score": "inactive"}
{"substance": "IAMKPENK", "amyloid nucleation score": "-0.997 ± 0.57"}
{"substance": "IATFGVTMSNSWT", "amyloid nucleation score": "2.84 ± 0.13"}
{"substance": "IATKGKDVVFVRCGPDPQL", "amyloid nucleation score": "1.04 ± 0.53"}
{"substance": "IATYCYLFSCWFIYVLT", "amyloid nucleation score": "0.992 ± 0.84"}
{"substance": "IAYDRRFIDLTRFIAIKFYI", "amyloid nucleation score": "-0.021 ± 0.93"}
{"substance": "ICFCL", "amyloid nucleation score": "7.772 ± 0.054"}
{"substance": "ICGNSSTEASGL", "amyloid nucleation score": "0.039 ± 0.56"}
{"substance": "ICICLMLSVIGSSSHVLLDW", "amyloid nucleation score": "1.08 ± 0.72"}
{"substance": "ICLYGACYFGVVWSKGGPGK", "amyloid nucleation score": "-0.634 ± 0.32"}
{"substance": "ICMKLLFEYLVPVLRQAH", "amyloid nucleation score": "-0.307 ± 1.2"}
{"substance": "ICSVRSTQVGEKTSLPWLCR", "amyloid nucleation score": "0.371 ± 0.41"}
{"substance": "ICVLCC", "amyloid nucleation score": "1.15 ± 0.62"}
{"substance": "ICVMS", "amyloid nucleation score": "inactive"}
{"substance": "ICWRMKVMWPYRTIGSSLTF", "amyloid nucleation score": "1.02 ± 0.45"}
{"substance": "IDCGSFSYKQSMQLMCKSAQ", "amyloid nucleation score": "-0.19 ± 0.28"}
{"substance": "IDHPTVKLIRYSAIHIALVT", "amyloid nucleation score": "0.093 ± 0.28"}
{"substance": "IDMLFPFCCVALRSHRSLEG", "amyloid nucleation score": "0.722 ± 0.46"}
{"substance": "IEEPIYDSKHLPKMRSTGYT", "amyloid nucleation score": "0.486 ± 0.35"}
{"substance": "IEGWHTRVHRRTLIVMCLIG", "amyloid nucleation score": "1.09 ± 0.41"}
{"substance": "IEIIIASSGHHHYIKRDNVY", "amyloid nucleation score": "0.652 ± 0.58"}
{"substance": "IEISDMSWFRPVMFNDAKEL", "amyloid nucleation score": "1.44 ± 0.53"}
{"substance": "IENSIGGMQLGVSISYMSGT", "amyloid nucleation score": "0.208 ± 0.41"}
{"substance": "IEWFVLGDYMCTAQSVCGLV", "amyloid nucleation score": "-1.26 ± 1.3"}
{"substance": "IFCAPLTTSQIALRVYNRRL", "amyloid nucleation score": "0.727 ± 0.88"}
{"substance": "IFDSFQATLCLGCLMLLSYF", "amyloid nucleation score": "0.423 ± 0.44"}
{"substance": "IFHGWVTGCCLVDNLLFYCT", "amyloid nucleation score": "5.42 ± 0.1"}
{"substance": "IFMRSAERGMRVLLEDDCRT", "amyloid nucleation score": "0.256 ± 0.61"}
{"substance": "IFNSEVVSSLIRVVSMNMEG", "amyloid nucleation score": "0.654 ± 0.21"}
{"substance": "IFPCNFSGNYLRKVWFPVRY", "amyloid nucleation score": "0.42 ± 0.91"}
{"substance": "IFSCGIGHWV", "amyloid nucleation score": "0.462 ± 0.49"}
{"substance": "IFSRSEEFVFFGHINSV", "amyloid nucleation score": "1.68 ± 0.32"}
{"substance": "IFTRLSLSFHNLGLGWKTRV", "amyloid nucleation score": "-0.248 ± 0.38"}
{"substance": "IFVFWTALSTSHNGWGVPVM", "amyloid nucleation score": "inactive"}
{"substance": "IFWGWSIQG", "amyloid nucleation score": "1.17 ± 0.58"}
{"substance": "IFYSSFS", "amyloid nucleation score": "inactive"}
{"substance": "IGAGL", "amyloid nucleation score": "-1.07 ± 2.4"}
{"substance": "IGAHFQSNLVIKVNSLEN", "amyloid nucleation score": "0.697 ± 0.63"}
{"substance": "IGALTSHAHQNVCVCNLLKD", "amyloid nucleation score": "0.307 ± 0.81"}
{"substance": "IGDRKMSY", "amyloid nucleation score": "0.145 ± 0.71"}
{"substance": "IGESVHKLSFWCDSGECF", "amyloid nucleation score": "0.073 ± 0.31"}
{"substance": "IGGPYLVGSHKLKLWPWLES", "amyloid nucleation score": "-0.575 ± 0.34"}
{"substance": "IGLRWYSFLLRMSGLSSTGA", "amyloid nucleation score": "-0.23 ± 0.24"}
{"substance": "IGMQLMVKTSLRHYGMYHTA", "amyloid nucleation score": "1.65 ± 0.44"}
{"substance": "IGPGLSSR", "amyloid nucleation score": "-0.521 ± 0.63"}
{"substance": "IGSGYW", "amyloid nucleation score": "-0.091 ± 0.52"}
{"substance": "IGSNK", "amyloid nucleation score": "-1.38 ± 0.86"}
{"substance": "IGVCILTDRLHD", "amyloid nucleation score": "inactive"}
